The data set is described as follows: amyloid nucleation score (Sup35N fusion, yeast selection) (log enrichment); library NNK3; higher = more nucleation; inactive = no reads after selection. Summed up:
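Yeast lacking psi expressed peptides of 20 random codons fused to Sup35N, received 100 μM copper sulfate for 24 hours, and were then grown for 7 days at 30°C on medium lacking adenine and uracil. Illumina sequencing of input and output plasmid inserts provided the reads. Nucleation scores are DiMSum log enrichments of output over input, centred on the mode of non-aggregating sequences. Any sequence with under 100 input reads was excluded.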

± gives the uncertainty stated by the source.

Consider YRHICKYCFGQPVGHH, for which the amyloid nucleation score was -1.1 ± 1.9.
In the case of VSSATTTMARRIHCFRVSRV, the amyloid nucleation score entry is “inactive”.
With YVIITGRKQGITNM the entry was “inactive”; with TVLYFA, “inactive”.
Turning to MIGNITMGLMSLDSGKRSVN, the amyloid nucleation score entry is “inactive”.
Turning to PRGLVALGFGAFSKGPHGRS, the amyloid nucleation score result is “inactive”.
On to LRLMAGNGSSKVGPIKMPWY, for which the amyloid nucleation score entry was “inactive”.
As to MFRDIWLFGPISWIYECCRS, the amyloid nucleation score is 2.36 ± 0.091.
With VLKARMY, the amyloid nucleation score result is “inactive”.
Consider NIFDFVFDEFRLAQPMYKCC, for which the amyloid nucleation score result was “inactive”.
With FEEYAIYPVAKGSVKMDAAL, the amyloid nucleation score entry is “inactive”.
The value for YNEHLQLAVWRYALTVGKVW was “inactive”; that for VVNRHGYLAMLK was “inactive”; that for LMSTYVTFFRSCKPSSCVFV was “inactive”.
Take PNARKMCMLFVTECFKVVPK: the amyloid nucleation score result is “inactive”.
CDHFQWYFLDRCLSVRCMIF yielded an amyloid nucleation score of 0.054 ± 0.36.
For LMLRVHGMW, the amyloid nucleation score entry was “inactive”.
The value for NFGVMLGVNTLSMSSRVVLG was 0.6 ± 0.26.
For the substance SLGISKSG, the amyloid nucleation score result was “inactive”.
With DANGCA, the amyloid nucleation score entry is “inactive”.
The value for NDSGAPPLPSGLQPLHH was “inactive”; that for FLLTYVNIRGMQP was 1.49 ± 0.099.
With YRRYWLSGRSFRADFIDNKT the entry was “inactive”; with VYFHSGSARFNTGTQL, “inactive”.
Consider HGVWSCRWWLNNRMF, for which the amyloid nucleation score entry was “inactive”.
Consider VEQLTEDKRWRSACKQRRKV, for which the amyloid nucleation score result is “inactive”.
As for PSTDVILSANWDDRRSGLYG, the amyloid nucleation score entry was “inactive”.
Regarding LRKFFHLLQIIMERNINRSI, the amyloid nucleation score result is “inactive”.
TCFSYLIFSCGFHSY yielded an amyloid nucleation score of 0.404 ± 0.64.
CYGNSMIGVFRICFHSLVYV: the amyloid nucleation score result was “inactive”.
The value for TMDTYSVPPHNFGMLCYGL was “inactive”.
On to LYSSLCRGWLCRISISTRAP, for which the amyloid nucleation score result is “inactive”.
On to HWPCLNSYEAIVFFCGMDSH, for which the amyloid nucleation score result is “inactive”.
In the case of FVDLSGRSCRVPTEVWGFHS, the amyloid nucleation score result was “inactive”.
Turning to LKYSSDQYLCRTFLGISGFG, the amyloid nucleation score result is “inactive”.
The value for LSDFL was “inactive”.
In turn, TNCCTCVMEASGNEGIGTLN registered an amyloid nucleation score of 0.367 ± 0.23.
TGQLSSQPIIQISREPIAFT: the amyloid nucleation score result is “inactive”.
TYAYELRIFSDYSHGLGFDP showed an amyloid nucleation score of -0.659 ± 0.88.
Consider IIIVILLQNWTSVRAVKPIV, for which the amyloid nucleation score result is “inactive”.
With YVPIIWYASQHLVPSKSYSA, the amyloid nucleation score result is “inactive”.
The substance LQVSIRLTLTNHVDRHTMPM came in with an amyloid nucleation score of 1.36 ± 0.15.
The value for KVIDGFLTLLSVNHRCKAWQ was “inactive”; that for QRMTNFLLGRVSV was “inactive”; that for YMSRKPV was “inactive”.
On to GCIYK, for which the amyloid nucleation score entry is “inactive”.
With QNCQVLKFRAILFNYLLFLT the entry was “inactive”; with KGQYLSIGYNNFRG, -0.764 ± 1.8; with LDAVNF, “inactive”.
The value for QDFYSACSNIVNST was “inactive”.
For LWMFDYKPRLVCQKSV, the amyloid nucleation score entry was “inactive”.
On to FAQYYDSVPIDEDTIQIVHI, for which the amyloid nucleation score result was “inactive”.
With CFNNRARP, the amyloid nucleation score result is “inactive”.
The value for SHPASVFGGKRMGCCSRPKG was -0.304 ± 1.1; that for ACYITTFLGADSVVEYQNDE was “inactive”.
Turning to CIFCRFFKVLVGHSYL, the amyloid nucleation score entry was “inactive”.
Consider GQYPEYYWYLGTEFFTVVLF, for which the amyloid nucleation score entry was “inactive”.
With GHWSEKSDGTNKSYVVRSGM the entry was “inactive”.
As for ARLHVILCDGCHVRMCPEMG, the amyloid nucleation score result was “inactive”.
In turn, SMACCGLSIAATNAPKVPKV displayed an amyloid nucleation score of 0.498 ± 0.34.
VGKWGFQEGST: the amyloid nucleation score result was “inactive”.
With YYSVMCRVRVA the entry was “inactive”.
With LSNPTSRVLSYRTNM the entry was “inactive”; with AASEPGSKRLEAAQWVPVAS, “inactive”.
The value for IYCVEERHFLNIYSRMSYYS was “inactive”.
Turning to SCFCNVFVVDMMSLSMGDIL, the amyloid nucleation score stood at 2.4 ± 0.05.
The value for HWLRCHEVEKVLVL was “inactive”.
Take SGMKWYLRLYV: the amyloid nucleation score entry was “inactive”.
With RARLHSVAINDVHSFTVSLG the figure was 0.004 ± 0.39.
The value for LQTFDYQRVWNKCLSEFSLE was “inactive”; that for IIRVRQTLSVRFIYIF was “inactive”.
Consider LLKLNS, for which the amyloid nucleation score entry is “inactive”.
As for SKPACRRFTLNDQKRKVEWI, the amyloid nucleation score entry was “inactive”.
In the case of LFDALYLEVTLGSSMVYVKN, the amyloid nucleation score entry is “inactive”.
In turn, TCQILRYIRSLLRMLIWCYY had an amyloid nucleation score of -0.418 ± 0.8.
For VSKVMSEMIYVGIYICKCCL, the amyloid nucleation score turned out to be 1.39 ± 0.11.
The value for RSVVMYALSIFYVRFTANQN was 0.755 ± 0.23; that for DTFMDSMLYTGLSIPCKVLL was -0.116 ± 1.4.
With VYSSVEFCISEKTHLKVWVL, the amyloid nucleation score result is “inactive”.
With CWDYWACGQGTA, the amyloid nucleation score entry was “inactive”.
Regarding GILFNK, the amyloid nucleation score entry is “inactive”.
Regarding LLVVYIFTGPLTVPHVWTIE, the amyloid nucleation score result is “inactive”.
Regarding RCHISERD, the amyloid nucleation score entry was “inactive”.
Take GFGFP: the amyloid nucleation score entry was “inactive”.
The value for RVDRLALLCSTSGINSDFGR was “inactive”; that for SSHLVWCYDANNHWADHK was “inactive”.
The substance TWGKRFYSGIMVQCIREEWA came in with an amyloid nucleation score of -0.741 ± 1.7.
With WEHLGETYGVFMSTEDRESG the entry was “inactive”; with SCQSGMSLCLSDHRLA, “inactive”.
For ILLSSHSSECNNALIRRF, the amyloid nucleation score turned out to be 1.46 ± 0.074.
As for SWVNDRQNFPASLLYRDYLL, the amyloid nucleation score result is “inactive”.
Take CRTHSDVVVSTHFMNAWLSI: the amyloid nucleation score entry was “inactive”.
As to AGKKLSRITTWSNTLLDPKS, the amyloid nucleation score entry was “inactive”.
Turning to SRYHLDFRYYSINKSLMSGV, the amyloid nucleation score result was “inactive”.
In the case of LCVYTYTSTHAVFFIVFDSR, the amyloid nucleation score result is “inactive”.
For LESLPINNEFSMQSYTRIVI, the amyloid nucleation score entry is “inactive”.
As to GLHLIFFSYHRWHVTLK, the amyloid nucleation score result is “inactive”.
The value for DSLSGYSVPYWSSFMNPWTN was 0.677 ± 0.24.
FSPYYLPLYVLVVRIKIQLG: the amyloid nucleation score result is “inactive”.
As for IICGSCPRR, the amyloid nucleation score result was “inactive”.
Consider HTVKEGSSNNVVRVRIARRF, for which the amyloid nucleation score entry was “inactive”.
The substance RDDFYLNFNFNFVRHGTRDS had an amyloid nucleation score of 1.26 ± 0.15.
Regarding QTVTRLTNSNSKLYFQPDVA, the amyloid nucleation score entry is “inactive”.
With LGRRLAMSV the figure was 0.692 ± 0.19; with TNNINALMLAIPINEYVVGH, “inactive”.
Turning to SKKSDF, the amyloid nucleation score entry is “inactive”.
With GIRLIECS the entry was “inactive”.
Turning to WYHSQNVINCRQSVVTMKHN, the amyloid nucleation score result was “inactive”.
In the case of KYDVGVYLYLLLPTNCRQQW, the amyloid nucleation score is 1.46 ± 0.12.
With VEIISFSVNKTFQAVFGVDK, the amyloid nucleation score stood at 1.47 ± 0.072.
The value for FTNYRSRGNMVRGGPCRPSY was “inactive”.
The value for GSSRCNGRLWSAG was “inactive”.
Turning to PPKGKSWMLIVVNRLGEDEQ, the amyloid nucleation score entry is “inactive”.
As for LFNLL, the amyloid nucleation score result was “inactive”.
As to CANANVP, the amyloid nucleation score result was “inactive”.
Consider LCTLMCTQFNYFVSETWLVP, for which the amyloid nucleation score was 2.25 ± 0.093.
The substance HDKAVQEVGQGCGE came in with an amyloid nucleation score of 1.34 ± 0.11.
For RVEVSSTGV, the amyloid nucleation score entry was “inactive”.
Consider VLMECSNFAVEQTARLVPVR, for which the amyloid nucleation score entry is “inactive”.
Take SCFCQILPFRV: the amyloid nucleation score entry was “inactive”.
For the substance SIFSLLCVRLRGEVAPSRLM, the amyloid nucleation score entry was “inactive”.
With FYYSVHFLF the entry was “inactive”; with YVKGRSETCPKDRIKGVRSD, “inactive”; with VHVSEGPRWRFHSRRDSSVV, “inactive”.
As to IYGSASNYMFILGIDRSRWA, the amyloid nucleation score came out at 1.14 ± 0.15.
With FYWGACSIHLFKL, the amyloid nucleation score entry was “inactive”.
The value for NVWSVVFVSCLIIYGCPKWM was 1.31 ± 0.087; that for SKNDIQARGSRKKCSNKGAK was “inactive”.
Take TKLWFCNFCYSLDAGIGKCV: the amyloid nucleation score was 2.37 ± 0.077.
In the case of NSFDSMGSMFANRYRLNFPR, the amyloid nucleation score result was “inactive”.
On to CLMKIWLTVEGTSHRALGFR, for which the amyloid nucleation score result is “inactive”.

Source of the values: the supplement of paper PMC12042874.
